According to patent US9937235B2, “Lipidated peptides as anti-obesity agents” (USTAV ORGANICKE CHEMIE A BIOCHEMIE AKADEMIE VED CR, V.V.I, priority 2012, dated 2018):
Like-named read-outs stand apart in the source and are kept apart here. Where a SMILES comes first, the peptide text is derived from it. Where no end group is shown, it is not given here. [ ]: non-standard residue; d: D form. The star is where a group is joined. Palmitoyl = CCCCCCCCCCCCCCCC(=O)*; Tridecanoyl = CCCCCCCCCCCCC(=O)*; Myristoyl = CCCCCCCCCCCCCC(=O)*; NMeA = CN[C@@H](C)C(=O)O; Nle = CCCC[C@H](N)C(=O)O; Dap = NC[C@H](N)C(=O)O

B1: analog no. 4 (peptide)
peptide: [Dap](Tridecanoyl)RAHQHS[Nle]ETRTPDINPAWYTGRGIRPVGRF-NH2
modifications: N-terminus assumed
SMILES: CCCCCCCCCCCCC(=O)NC[C@H](N)C(=O)N[C@@H](CCCNC(=N)N)C(=O)N[C@@H](C)C(=O)N[C@@H](Cc1c[nH]cn1)C(=O)N[C@@H](CCC(N)=O)C(=O)N[C@@H](Cc1c[nH]cn1)C(=O)N[C@@H](CO)C(=O)N[C@@H](CCCC)C(=O)N[C@@H](CCC(=O)O)C(=O)N[C@H](C(=O)N[C@@H](CCCNC(=N)N)C(=O)N[C@H](C(=O)N1CCC[C@H]1C(=O)N[C@@H](CC(=O)O)C(=O)N[C@H](C(=O)N[C@@H](CC(N)=O)C(=O)N1CCC[C@H]1C(=O)N[C@@H](C)C(=O)N[C@@H](Cc1c[nH]c2ccccc12)C(=O)N[C@@H](Cc1ccc(O)cc1)C(=O)N[C@H](C(=O)NCC(=O)N[C@@H](CCCNC(=N)N)C(=O)NCC(=O)N[C@H](C(=O)N[C@@H](CCCNC(=N)N)C(=O)N1CCC[C@H]1C(=O)N[C@H](C(=O)NCC(=O)N[C@@H](CCCNC(=N)N)C(=O)N[C@@H](Cc1ccccc1)C(N)=O)C(C)C)[C@@H](C)CC)[C@@H](C)O)[C@@H](C)CC)[C@@H](C)O)[C@@H](C)O
notes: analog of rat PrRP31
B2: Rat PrRP31 (peptide)
peptide: SRAHQHSMETRTPDINPAWYTGRGIRPVGRF-NH2
notes: also called prolactin-releasing peptide
B3: Rat PrRP20 (peptide)
peptide: TPDINPAWYTGRGIRPVGRF-NH2
B4: analog no. 10 (peptide)
peptide: Myristoyl-TPDINPAWYTGRGIRPVGRF-NH2
SMILES: CCCCCCCCCCCCCC(=O)N[C@H](C(=O)N1CCC[C@H]1C(=O)N[C@@H](CC(=O)O)C(=O)N[C@H](C(=O)N[C@@H](CC(N)=O)C(=O)N1CCC[C@H]1C(=O)N[C@@H](C)C(=O)N[C@@H](Cc1c[nH]c2ccccc12)C(=O)N[C@@H](Cc1ccc(O)cc1)C(=O)N[C@H](C(=O)NCC(=O)N[C@@H](CCCNC(=N)N)C(=O)NCC(=O)N[C@H](C(=O)N[C@@H](CCCNC(=N)N)C(=O)N1CCC[C@H]1C(=O)N[C@H](C(=O)NCC(=O)N[C@@H](CCCNC(=N)N)C(=O)N[C@@H](Cc1ccccc1)C(N)=O)C(C)C)[C@@H](C)CC)[C@@H](C)O)[C@@H](C)CC)[C@@H](C)O
notes: myristoylated rat PrRP20
B5: analog no. 5 (peptide)
peptide: [Dap](Myristoyl)RAHQHS[Nle]ETRTPDINPAWYTGRGIRPVGRF-NH2
modifications: N-terminus assumed
SMILES: CCCCCCCCCCCCCC(=O)NC[C@H](N)C(=O)N[C@@H](CCCNC(=N)N)C(=O)N[C@@H](C)C(=O)N[C@@H](Cc1c[nH]cn1)C(=O)N[C@@H](CCC(N)=O)C(=O)N[C@@H](Cc1c[nH]cn1)C(=O)N[C@@H](CO)C(=O)N[C@@H](CCCC)C(=O)N[C@@H](CCC(=O)O)C(=O)N[C@H](C(=O)N[C@@H](CCCNC(=N)N)C(=O)N[C@H](C(=O)N1CCC[C@H]1C(=O)N[C@@H](CC(=O)O)C(=O)N[C@H](C(=O)N[C@@H](CC(N)=O)C(=O)N1CCC[C@H]1C(=O)N[C@@H](C)C(=O)N[C@@H](Cc1c[nH]c2ccccc12)C(=O)N[C@@H](Cc1ccc(O)cc1)C(=O)N[C@H](C(=O)NCC(=O)N[C@@H](CCCNC(=N)N)C(=O)NCC(=O)N[C@H](C(=O)N[C@@H](CCCNC(=N)N)C(=O)N1CCC[C@H]1C(=O)N[C@H](C(=O)NCC(=O)N[C@@H](CCCNC(=N)N)C(=O)N[C@@H](Cc1ccccc1)C(N)=O)C(C)C)[C@@H](C)CC)[C@@H](C)O)[C@@H](C)CC)[C@@H](C)O)[C@@H](C)O
notes: analog of rat PrRP31; also called [Dpr(myr)^1]PrRP31; myristoylated analog [Dpr^1]PrRP31 (No. 5)

Legend:
[1] = target: T1, rat PrRP receptor (GPR10) in RC-4B/C cells (Rattus norvegicus, UniProt Q64121); assay: Competitive binding to rat pituitary RC-4B/C cells
T1 construct: host or cells: RC-4B/C rat pituitary cell line
T1 sequence (Q64121 1-370): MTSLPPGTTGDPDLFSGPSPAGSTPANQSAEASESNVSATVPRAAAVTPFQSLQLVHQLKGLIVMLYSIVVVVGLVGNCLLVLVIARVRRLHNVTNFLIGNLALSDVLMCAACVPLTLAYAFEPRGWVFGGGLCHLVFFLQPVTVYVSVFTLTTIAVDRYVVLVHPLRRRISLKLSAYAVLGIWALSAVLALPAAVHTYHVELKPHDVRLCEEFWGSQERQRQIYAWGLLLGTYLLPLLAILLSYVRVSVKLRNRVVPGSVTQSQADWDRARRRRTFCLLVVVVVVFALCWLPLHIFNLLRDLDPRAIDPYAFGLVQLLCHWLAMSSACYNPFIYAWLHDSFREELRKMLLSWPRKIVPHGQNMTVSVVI
Procedure: Competitive binding experiments were performed according to Motulsky and Neubig (Motulsky, A., et al., “Analyzing radioligand binding data,” Curr Protoc Neurosci, Chapter 7, Unit 7.5, 2002). The rat pituitary cell line RC-4B/C (ATCC, Manassas, USA) was grown on 24-well plates which had their bottom coated with polyethyleneimine. The cells were grown to the optimal density of 300-450 thousand per well. […] Plates were incubated for 60 minutes at room temperature. After incubation, the cells were solubilized in 0.1 mol/l solution of NaOH and the radioactivity bound to the cells was counted using a γ-counter. The experiments were performed in duplicate and repeated at least three times. For evaluation of competitive binding experiments, the program Graph Pad Prism Software (San Diego, Calif., USA) was used. A method of nonlinear regression assuming one-site binding was used.

fasted C57BL/6 mice = assay: Food intake in fasted mice after SC administration; format: in vivo, mouse; details: fasted C57BL/6 mice, 5 mg/kg SC, 45 min
How it was run: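 Male C57BL/6 mice, food-deprived 17 h, received saline, PrRP or lipidated analogs either SC at 1-10 mg/kg or ICV into the third ventricle at 4 nmol/mouse.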

[2] = target: T2, rat PrRP receptor in RC-4B/C cells (rat, UniProt Q64121 1-370); assay: competition with 125I-rat PrRP31 on RC-4B/C cells
T2 construct: whole, on cells; also called the rat receptor; GPR10
T2 sequence (looked up): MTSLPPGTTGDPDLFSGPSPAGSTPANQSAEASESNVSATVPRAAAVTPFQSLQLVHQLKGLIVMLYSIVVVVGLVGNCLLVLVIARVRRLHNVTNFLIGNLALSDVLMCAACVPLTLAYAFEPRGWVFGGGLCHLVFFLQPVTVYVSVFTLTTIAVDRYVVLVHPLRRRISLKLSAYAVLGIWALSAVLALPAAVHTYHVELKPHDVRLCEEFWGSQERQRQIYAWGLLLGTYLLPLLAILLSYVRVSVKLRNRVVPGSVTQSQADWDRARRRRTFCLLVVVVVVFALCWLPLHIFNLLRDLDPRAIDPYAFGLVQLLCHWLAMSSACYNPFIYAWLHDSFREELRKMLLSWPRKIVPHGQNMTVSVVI
Procedure: (§1) The rat pituitary cell line RC-4B/C (ATCC, Manassas, USA) was grown on 24-well plates which had their bottom coated with polyethyleneimine. The cells were grown to the optimal density of 300-450 thousand per well.
(§2) Plates were incubated for 60 minutes at room temperature. After incubation, the cells were solubilized in 0.1 mol/l solution of NaOH and the radioactivity bound to the cells was counted using a γ-counter. The experiments were performed in duplicate and repeated at least three times.

[3] = target: T2, rat PrRP receptor in RC-4B/C cells; assay: competition with 125I-rat PrRP31 on RC-4B/C cells; Ki by Cheng-Prusoff
Procedure: as §1, §2
For evaluation of competitive binding experiments, the program Graph Pad Prism Software (San Diego, Calif., USA) was used. A method of nonlinear regression assuming one-site binding was used.

[4] = rat RC-4B/C cells, Table 5, read-out: C-4B/C cells ^25I-rat PrRP31 Ki

| Molecule | Ki [1, 4] [nM] | Food intake in mice (5 mg/kg SC) % saline-treated group (45 min) (fasted C57BL/6 mice) [%] | Ki ([1]; ^125I-rat PrRP31, RC-4B/C cells, Table 3, read-out: ^125I-rat PrRP31 Ki) [nM] | % of PrRP31 binding [2] [%] | Ki [3] [nM] |
| --- | --- | --- | --- | --- | --- |
| CCCCCCCCCCCCCCCC(=O)N[C@@H](CO)C(=O)N[C@@H](CCCNC(=N)N)C(=O)N[C@@H](C)C(=O)N[C@@H](Cc1c[nH]cn1)C(=O)N[C@@H](CCC(N)=O)C(=O)N[C@@H](Cc1c[nH]cn1)C(=O)N[C@@H](CO)C(=O)N[C@@H](CCSC)C(=O)N[C@@H](CCC(=O)O)C(=O)N[C@H](C(=O)N[C@@H](CCCNC(=N)N)C(=O)N[C@H](C(=O)N1CCC[C@H]1C(=O)N[C@@H](CC(=O)O)C(=O)N[C@H](C(=O)N[C@@H](CC(N)=O)C(=O)N1CCC[C@H]1C(=O)N[C@@H](C)C(=O)N[C@@H](Cc1c[nH]c2ccccc12)C(=O)N[C@@H](Cc1ccc(O)cc1)C(=O)N[C@H](C(=O)NCC(=O)N[C@@H](CCCNC(=N)N)C(=O)NCC(=O)N[C@H](C(=O)N[C@@H](CCCNC(=N)N)C(=O)N1CCC[C@H]1C(=O)N[C@H](C(=O)NCC(=O)N[C@@H](CCCNC(=N)N)C(=O)N[C@@H](Cc1ccccc1)C(N)=O)C(C)C)[C@@H](C)CC)[C@@H](C)O)[C@@H](C)CC)[C@@H](C)O)[C@@H](C)O [Analog 61] (Palmitoyl-SRAHQHSMETRTPDINPAWYTGRGIRPVGRF-NH2) | 0.41 ± 0.12 | 2 | – | – | – |
| CCCCCCCCCCCCCC(=O)N[C@H](C(=O)N1CCC[C@H]1C(=O)N[C@@H](CC(=O)O)C(=O)N[C@H](C(=O)N[C@@H](CC(N)=O)C(=O)N1CCC[C@H]1C(=O)N[C@@H](C)C(=O)N[C@@H](Cc1c[nH]c2ccccc12)C(=O)N[C@@H](Cc1ccc(O)cc1)C(=O)N[C@@H](C)C(=O)N[C@@H](CO)C(=O)N[C@@H](CCCNC(=N)N)C(=O)NCC(=O)N[C@H](C(=O)N[C@@H](CCCNC(=N)N)C(=O)N1CCC[C@H]1C(=O)N[C@H](C(=O)NCC(=O)N[C@@H](CCCNC(=N)N)C(=O)N[C@@H](Cc1ccccc1)C(N)=O)C(C)C)[C@@H](C)CC)[C@@H](C)CC)[C@@H](C)O [Analog 13] (Myristoyl-TPDINPAWYASRGIRPVGRF-NH2) | – | – | 0.41 ± 0.13 | – | – |
| CCCCCCCCCCCCCCCC(=O)N[C@@H](CO)C(=O)N[C@@H](CCCNC(=N)N)C(=O)N[C@@H](C)C(=O)N[C@@H](Cc1c[nH]cn1)C(=O)N[C@@H](CCC(N)=O)C(=O)N[C@@H](Cc1c[nH]cn1)C(=O)N[C@@H](CO)C(=O)N[C@@H](CCCC)C(=O)N[C@@H](CCC(=O)O)C(=O)N[C@H](C(=O)N[C@@H](CCCNC(=N)N)C(=O)N[C@H](C(=O)N1CCC[C@H]1C(=O)N[C@@H](CC(=O)O)C(=O)N[C@H](C(=O)N[C@@H](CC(N)=O)C(=O)N1CCC[C@H]1C(=O)N[C@@H](C)C(=O)N[C@@H](Cc1c[nH]c2ccccc12)C(=O)N[C@@H](Cc1ccc(O)cc1)C(=O)N[C@H](C(=O)NCC(=O)N[C@@H](CCCNC(=N)N)C(=O)NCC(=O)N[C@H](C(=O)N[C@@H](CCCNC(=N)N)C(=O)N1CCC[C@H]1C(=O)N[C@H](C(=O)NCC(=O)N[C@@H](CCCNC(=N)N)C(=O)N[C@@H](Cc1ccccc1)C(N)=O)C(C)C)[C@@H](C)CC)[C@@H](C)O)[C@@H](C)CC)[C@@H](C)O)[C@@H](C)O [Analog 19] (Palmitoyl-SRAHQHS[Nle]ETRTPDINPAWYTGRGIRPVGRF-NH2) | 0.51 ± 0.16 | 2 | – | – | – |
| CCCCCCCCCCCCCC(=O)N[C@H](C(=O)N1CCC[C@H]1C(=O)N[C@@H](CC(=O)O)C(=O)N[C@H](C(=O)N[C@@H](CC(N)=O)C(=O)N1CCC[C@H]1C(=O)N[C@@H](C)C(=O)N[C@@H](Cc1c[nH]c2ccccc12)C(=O)N[C@@H](Cc1ccc(O)cc1)C(=O)N(C)[C@@H](C)C(=O)N[C@@H](CO)C(=O)N[C@@H](CCCNC(=N)N)C(=O)NCC(=O)N[C@H](C(=O)N[C@@H](CCCNC(=N)N)C(=O)N1CCC[C@H]1C(=O)N[C@H](C(=O)NCC(=O)N[C@@H](CCCNC(=N)N)C(=O)N[C@@H](Cc1ccccc1)C(N)=O)C(C)C)[C@@H](C)CC)[C@@H](C)CC)[C@@H](C)O [Analog 41] (Myristoyl-TPDINPAWY[NMeA]SRGIRPVGRF-NH2) | 0.46 ± 0.05 | – | – | – | – |
| B1 | – | – | – | 967 | 0.51 |
| B2 | – | – | – | 100 | 4.93 |
| B3 | – | – | – | 143 | 3.44 |
| B4 | – | – | – | 632 | 0.78 |
| B5 | – | – | – | 601 | 0.82 |
